Laboratory results from publication PMC7840056.

biological target: NiuD permease subunit of the NiuBDE nickel ABC transporter, full length, fused to the T18 fragment (pUT18); assay: bacterial two-hybrid (BACTH), ß-galactosidase activity; conditions: E. coli strain BTH101; each measurement was performed three times; parent: est. 2400; read off a plot

Substance | response [Miller Units]
SlyD wild type fused to the T25 fragment of Bordetella pertussis adenylate cyclase (pNKT25) (from UniProt O25748) I47S; Y73A; F137Y | 1800

biological target: NiuDΔ7, C-terminally truncated NiuD fused to the T18 fragment; assay: as above; conditions: E. coli strain BTH101; each measurement was performed three times; parent: est. 2500; read off a plot

Substance | response [Miller Units]
SlyD wild type fused to the T25 fragment of Bordetella pertussis adenylate cyclase (pNKT25) (from UniProt O25748) I47S; Y73A; F137Y | 2100

biological target: SlyD wild type fused to the T25 fragment of Bordetella pertussis adenylate cyclase (pNKT25) (UniProt O25748); assay: as above; conditions: E. coli strain BTH101; each measurement was performed three times; parent: est. 2500; read off a plot

Substance | response [Miller Units]
NiuDΔ7, C-terminally truncated NiuD fused to the T18 fragment W209G | 720
NiuDΔ7, C-terminally truncated NiuD fused to the T18 fragment R208S | 1000
NiuDΔ7, C-terminally truncated NiuD fused to the T18 fragment P203V | 1500
NiuDΔ7, C-terminally truncated NiuD fused to the T18 fragment W209F | 1200
NiuDΔ7, C-terminally truncated NiuD fused to the T18 fragment R210G | 120
NiuDΔ7, C-terminally truncated NiuD fused to the T18 fragment R208G; W209G; R210G | 30
NiuDΔ7, C-terminally truncated NiuD fused to the T18 fragment R208Q | 95
